The numbers were not newly measured in PMC2895966, which cites them from elsewhere.

For the series, the target named is Pyrrhocoricin (Pyrrhocoris apterus) (UniProt P37362).
Chain of Pyrrhocoricin (Pyrrhocoris apterus) (P37362 whole entry): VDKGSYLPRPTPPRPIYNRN

Chain of DnaK SBD (P0A6Y8 389-607): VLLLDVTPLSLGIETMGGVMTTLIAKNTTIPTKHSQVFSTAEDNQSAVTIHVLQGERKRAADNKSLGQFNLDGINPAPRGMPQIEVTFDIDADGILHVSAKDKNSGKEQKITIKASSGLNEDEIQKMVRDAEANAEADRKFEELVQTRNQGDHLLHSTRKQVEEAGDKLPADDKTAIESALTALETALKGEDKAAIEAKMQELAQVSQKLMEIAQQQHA

As for DnaK SBD (from UniProt P0A6Y8), the Kd (in general, a measure of binding affinity in units of concentration) is 50 µM.
